Experimental data taken from patent US20240110154A1, “Engineered NKT Cells for Expansion and In Vivo Preservation and Methods of Use for the Control of Tumor Cells” (Baylor College of Medicine, priority 2021, published 2024).

B1: Wnt3a: recombinant Wnt3a, Wnt ligand (protein, UniProt P56704 19-352, looked up)
Protein Wnt-3a: SYPIWWSLAVGPQYSSLGSQPILCASIPGLVPKQLRFCRNYVEIMPSVAEGIKIGIQECQHQFRGRRWNCTTVHDSLAIFGPVLDKATRESAFVHAIASAGVAFAVTRSCAEGTAAICGCSSRHQGSPGKGWKWGGCSEDIEFGGMVSREFADARENRPDARSAMNRHNNEAGRQAIASHMHLKCKCHGLSGSCEVKTCWWSQPDFRAIGDFLKDKYDSASEMVVEKHRESRGWVETLRPRYTYFKVPTERDLVYYEASPNFCEPNPETGSFGTRDRTCNVSSHGIDGCDLLCCGRGHNARAERRREKCRCVFHWCCYVSCQECTRVYDVHTCK

Tested on: NKTs
Test: CD62L expression by flow cytometry on day 12 after antigenic stimulation of NKTs treated with Wnt activators
Assay type: cell-based, human
Conditions: for development of CD62L+ NKTs: day 12
Method: PBMC of healthy donors (at least 18 years old) are isolated by gradient centrifugation from buffy coats purchased from Gulf Coast Regional Blood Center. NKTs are purified by anti-iNKT microbeads (Miltenyi Biotec). The negative PBMC fraction is irradiated (40 Gy) and aliquoted. NKTs are stimulated with an aliquot of autologous PBMCs pulsed with 100 ng/niL αGalCer (Kyowa Hakko Kirin). Recombinant IL-2 (200 U/ml, National Cancer Institute Frederick) is added every other day in complete RPMI (HyClone RPMI 1640, 10% heat inactivated fetal bovine serum and 2 mM Glutamax). NKTs are expanded for 10 days and then re-stimulated with autologous PBMC (irradiated with 40 Gy) or Ramos cells as aAPC (irradiated with 100 Gy) when indicated. On day 3 after re-stimulation, 24 well, non-tissue culture plates are coated with retronectin (Takara Bio) and after washing inoculated with 1 ml of retroviral supernatant containing the constructs shown in FIG. 27 and described above and spun for 60 min at 4600 G. The viral supernatant is then removed and stimulated NKTs are added to the wells in complete media and 200 U/ml rhIL-2. Cells are removed from the plate after 48 h, washed, re-suspended at the concentration 10^6 cell/ml in complete RPMI with 200 U/ml IL-2 and plated for continued expansion. NKT-cell number is determined by Trypan Blue (Life technologies) counting. When indicated, NKTs or CAR-NKTs are labeled with CD62L-PE mAb (GREG-56, BD Biosciences) and anti-PE microbeads (Miltenyi) followed by magnetic sorting into CD62L+ and CD62L− subsets according to the manufacturer's instructions. The phenotype of the sorted cells was determined by FACS.
NKTs are stimulated as described in Example 2 but treated with three separate doses of PBS or 500 ng/mL Wnt3a given on day 0, 3 and 7 after antigenic stimulation. CD62L expression is examined by flow cytometry on day 12 after antigenic stimulation. […]
Following primary stimulation, NKTs are cultured with IL-2 or IL-2/IL-21 for 12 days. […] CD62L expression is analyzed by flow cytometry at the end of expansion.

| Molecule | development of CD62L+ NKTs (one dose 5 μM on day 7 after antigenic stimulation vs DMSO, n=6 donors) | development of CD62L+ NKTs (500 ng/mL on day 0, 3 and 7 vs PBS, n=3 donors) | CD62L frequency (500 ng/ml on days 0, 1, 2, culture with IL-2 or IL-2/IL-21 for 12 days) |
| --- | --- | --- | --- |
| Nc1cccc(-c2cc3c(Oc4cccc(O)c4)ncnc3[nH]2)c1 [TWS119, reference compound] | promotes development of CD62L+ NKTs |  |  |
| B1 |  | promotes development of CD62L+ NKTs | works additively with IL-21 to increase CD62L frequency |
